{
  "source": "patent US11298402B2",
  "about": "“Lysosomal degradation of lipids and proteins and method of use thereof” (University of Ottawa, priority 2015, dated 2022)",
  "key": {"[1]": {"system": "McA-RH7777 cells stably expressing human apoB-100 and human apoC-III (A18-C3)", "assay_type": "cell-based", "settings": "for effect on EPA-induced lipid degradation (CLD turnover): cells silenced, transfected or pre-treated, then EPA 0.4 mM, 6 h"}, "hepatic cells [2]": {"system": "hepatic cells", "assay": "Prolonged oleate treatment (OA-induced steatosis) of hepatic cells", "assay_type": "cell-based", "settings": "for steatosis (CLD accumulation): oleate 0.4 mM for up to 3 days", "description": "FIG. 36 illustrates that the LD content in cells cultured under lipid-rich conditions may be manipulated by expression of different forms of Arl8b. Images in the top row show position of lysosomes in cells cultured in a lipid-rich medium (i.e. supplemented with oleate) for up to 4 days. After 1-day treatment with oleate, lysosomes (stained with LysoTracker, green) were accumulated in the perinuclear regions of cells. However after 2-day oleate treatment, lysosomes were relocated towards the LDs at cell periphery. The relocation of lysosomes from the perinuclear region toward cell periphery indicates perturbed lysosomal motility under oleate-treatment conditions, which leads to prolonged association of lysosomes with LDs. Accumulation/higher interaction of lysosomes on LDs became more pronounced after 3- and 4-day treatment with oleate, with clear rings of lysosomes around LDs. Expression of the GDP-bound form of Arl8b, or Arl8b^T34N (or Arl8b “DN”, dominant negative), protects hepatocytes from accumulation of LDs upon long-term treatment with oleate. Note that even after 3 days, cells expressing Arl8b “DN” were healthy and accumulated low numbers of LDs (middle row). In contrast, expression of the GTP-bound form of Arl8b, or Arl8b^Q75L (or Arl8b “DA”, dominant active), exacerbated accumulation of LDs in cells (images in the bottom row). In fact, the cells could not tolerate long-term treatment and started to die after day 2. This situation may be similar to that in advanced levels of fatty liver, which causes hepatocyte apoptosis;\nIn these cells, lysosomes were continuously in contact with CLD, indicative of stalled lysosomal motility. This persistent lysosomal interaction with CLDs (i.e. “kiss” without “run”) clearly indicates the interfered process of microautophagy and lack of a mechanism in the cells, after prolonged OA treatment, that facilitates dissociation of lysosomes from CLDs, blocking the engulfment process. Thus, phenotypically, accumulation of CLD in cells cultured in lipid-rich media (e.g. supplementation with 0.4 mM OA) is invariably associated with a compromised lysosomal motility (i.e. kiss-and-run)."}, "[3]": {"system": "primary neurons from parkinsonian mice", "assay": "Lysosome and cell morphology in Parkinson's disease primary neurons", "assay_type": "cell-based, mouse"}, "C57BL/6 mice": {"system": "C57BL/6 mice", "assay": "Diet-induced fatty liver mouse model (high-fat-high-sucrose diet), Oil Red O", "assay_type": "in vivo", "settings": "adenovirus injected 1 day before HFHS diet for up to 4 days", "protocol": "The respective Arl8b^T34N (DN), Arl8b^Q75L (DA), and Arl8b^WT constructs, along with empty virus (EV; control treatment) were injected into mice 1 day prior to feeding with a high fat diet for up to 4 days. The livers were stained with Oil Red O to determine the lipid contents, under the expression of various forms of Arl8b.\nIn these experiments, C57BL/6 mice were injected with adenovirus encoding different variants, namely Arl8b^T34N, Arl8b^Q75L, and Arl8b^WT. In these mice, expression of Arl8b proteins encoded by the adenoviral vectors lasts at least a few weeks. Thus, 1-day after viral injection, the mice were placed on a high-fat-high-sucrose (HFHS) diet for up to 4 days."}, "hepatic cells [4]": {"system": "hepatic cells", "assay": "Hepatic glucose uptake (fluorescent 2-NBDG assay)", "assay_type": "cell-based", "settings": "transfected cells treated with EPA"}, "[5]": {"settings": "transfection of PD primary neurons"}},
  "note": "Entries after “also recorded” stand apart in the source; their conditions may differ.",
  "data": [
    {"molecule": "Arl8b^T34N: putative GDP-bound, dominant negative Arl8b mutant (Thr-to-Asn at 34; SEQ ID NO: 12), expressed from plasmid or adenovirus Adv-MG1023; tagged forms used (protein, GFP/RFP tags in some forms; T34N substitution, GDP-binding, tagged forms used) MLALISRLLDWFRSLFWKEEMELTLVGLQYSGKNTFVNVIASGQFSEDMIPTVGFNMRKVTKGNVTIKIWDIGGQPRFRSMWERYCRGVNAIVYMIDAADREKIEASRNELHNLLDKPQLQGIPVLVLGNKRDLPNALDEKQLIEKMNLSAIQDREICCYSISCKEKDNIDITLQWLIQHSKSRRS", "values": [
      {"measurement": "lipid content of lipid-laden cells without addition of EPA", "setting": "[1]; OA-treatment conditions, transfected cells", "value": "lipid content is lowered"},
      {"measurement": "effect on the inhibition of microautolipophagy by Vps41 and GTP-bound Arl8b", "setting": "[1]; cell culture studies", "value": "can override the inhibitory effect of Vps41 and a GTP-bound form of Arl8b on microautolipophagy"},
      {"measurement": "effect on EPA-induced lipid degradation (CLD turnover)", "setting": "[1]", "value": "accelerated"},
      {"measurement": "steatosis (CLD accumulation)", "setting": "hepatic cells [2]", "value": "without indication of steatosis"},
      {"measurement": "axonal swelling and degeneration in PD primary neurons", "setting": "[3]; [5]", "value": "restored axonal swelling and degeneration; also recorded: restore axons"},
      {"measurement": "lysosomal phenotype (ring shape structure) in PD primary neurons", "setting": "[3]; [5]", "value": "cleared the ring shape structure of lysosomes"},
      {"measurement": "liver steatosis (Oil Red O)", "setting": "C57BL/6 mice", "value": "nearly absent lipid accumulation"},
      {"measurement": "glucose uptake", "setting": "hepatic cells [4]", "value": "increased rate of glucose uptake"}
    ]},
    {"molecule": "Arl8b^Q75L: putative GTP-bound, dominant active Arl8b mutant (Gln-to-Leu at 75; SEQ ID NO: 13), expressed from plasmid or adenovirus Adv-MG1022; tagged forms used (protein, GFP/RFP tags in some forms; Q75L substitution, GTP-binding, tagged forms used) MLALISRLLDWFRSLFWKEEMELTLVGLQYSGKTTFVNVIASGQFSEDMIPTVGFNMRKVTKGNVTIKIWDIGGLPRFRSMWERYCRGVNAIVYMIDAADREKIEASRNELHNLLDKPQLQGIPVLVLGNKRDLPNALDEKQLIEKMNLSAIQDREICCYSISCKEKDNIDITLQWLIQHSKSRRS", "values": [
      {"measurement": "effect on EPA-induced lipid degradation (CLD turnover)", "setting": "[1]", "value": "completely blocked"},
      {"measurement": "cell survival under OA treatment", "setting": "hepatic cells [2]; medium with 0.4 mM OA, 2-day incubation", "value": "most of the cells died"},
      {"measurement": "steatosis (CLD accumulation)", "setting": "hepatic cells [2]", "value": "developed severe steatosis"},
      {"measurement": "lysosomal phenotype of normal primary neurons", "setting": "[3]; transfection of normal primary neurons", "value": "converts normal neuronal lysosomes to PD primary neuron phenotype"},
      {"measurement": "liver steatosis (Oil Red O)", "setting": "C57BL/6 mice", "value": "developed pronounced steatosis"},
      {"measurement": "glucose uptake", "setting": "hepatic cells [4]", "value": "virtually abolished glucose uptake"}
    ]}
  ]
}
